Test results reported in article PMC9440762, “Anti-Stokes fluorescence excitation reveals conformational mobility of the C-phycocyanin chromophores” (Structural Dynamics, 2022).
Blank lines part the entries; values can stand above or below the binder they belong to.

Legend:
[1] = molecular target: T1, C-phycocyanin β subunit from Arthrospira platensis (Arthrospira platensis (Spirulina), UniProt P72508 1-172, phycocyanobilin covalently bound to the cysteines at positions 82 and 153); assay: SEC; preparative Superdex 200 26/600, 20 mM Tris-HCl pH 7.6, 150 mM NaCl; fractions of the main peak analysed by SDS-PAGE; conditions: both partners purified
T1 construct: C-phycocyanin β subunit, Arthrospira platensis (Spirulina); also called β C-PC chain
T1 sequence (looked up): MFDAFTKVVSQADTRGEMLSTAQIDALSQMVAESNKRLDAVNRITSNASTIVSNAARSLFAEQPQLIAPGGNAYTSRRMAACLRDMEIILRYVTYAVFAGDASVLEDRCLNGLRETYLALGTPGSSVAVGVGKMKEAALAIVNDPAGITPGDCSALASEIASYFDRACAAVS

[2] = molecular target: the molecule itself; assay: SAXS; C-PC in solution at 150 mM NaCl; fits with trimer and hexamer models, MW estimate, ab initio shape by GASBOR; also at 4, 6 and 8 M urea (decrease in the oligomeric state, partial dissociation of trimers)

binding result [1]: binds
B1: C-phycocyanin α subunit from Arthrospira platensis (natural protein)
chain: not shown
modifications: phycocyanobilin covalently bound to the cysteine at position 84
notes: C-phycocyanin α subunit, Arthrospira platensis (Spirulina); also called α C-PC chain

B2: C-phycocyanin αβ monomer (heterodimer of the α and β subunits) from Arthrospira platensis (complex)
chain 1: not shown
chain 2: T1 sequence (looked up)
modifications: phycocyanobilin covalently bound to the cysteine at position 84 | phycocyanobilin covalently bound to the cysteines at positions 82 and 153
notes: C-phycocyanin α subunit, Arthrospira platensis (Spirulina); band of apparent MW 16 or 18 kDa on SDS-PAGE; C-phycocyanin β subunit, Arthrospira platensis (Spirulina); The unit that associates with itself into the (αβ)3 trimer; Linker polypeptides are absent from the preparation; also called C-PC; PC
stoichiometry N [2]: 3
